Data published in the Human Domainome abundance scans (Beltran et al. 2025).
± gives the uncertainty stated by the source.

B1: Gamma-crystallin D, residues 90 to 170; numbered along this chain, P07320 (parent)
chain: IRLYEREDYRGQMIEFTEDCSCLQDRFRFNEIHSLNVLEGSWVLYELSNYRGRQYLLMPGDYRRYQDWGATNARVGSLRRV

Variants of: B1
Assay: abundance fitness (aPCA) (normalised: wild type 0, dead -1); higher = more abundant; growth selection in yeast, the domain comes from the species named
Settings: Homo sapiens

In order of rising abundance fitness:
1. S34V  -1.08 ± 0.16
2. L35E  -1.08 ± 0.33
3. S34P  -1.03 ± 0.11
4. S34D  -0.936 ± 0.28
5. S34T  -0.924 ± 0.15
6. S34Y  -0.893 ± 0.19
7. S34E  -0.853 ± 0.19
8. S34I  -0.84 ± 0.26
9. S34W  -0.828 ± 0.21
10. S34H  -0.771 ± 0.23
11. S34R  -0.766 ± 0.11
12. S34M  -0.689 ± 0.092
13. L35H  -0.535 ± 0.36
14. I32D  -0.346 ± 0.39
15. F27H  -0.343 ± 0.13
16. R28H  -0.32 ± 0.16
17. R26F  -0.292 ± 0.16
18. I32Q  -0.251 ± 0.19
19. I32K  -0.235 ± 0.16
20. R28F  -0.203 ± 0.23
21. I32E  -0.201 ± 0.32
22. D25N  -0.197 ± 0.24
23. E31C  -0.192 ± 0.15
24. R28E  -0.177 ± 0.13
25. D25Y  -0.17 ± 0.12
26. D25T  -0.168 ± 0.31
27. L35N  -0.156 ± 0.17
28. D25M  -0.149 ± 0.2
29. F29T  -0.135 ± 0.11
30. F27M  -0.129 ± 0.21
31. D25S  -0.127 ± 0.092
32. F27R  -0.126 ± 0.058
33. E31S  -0.123 ± 0.099
34. N30L  -0.122 ± 0.084
35. F29I  -0.112 ± 0.17
36. I32A  -0.11 ± 0.08
37. E31F  -0.109 ± 0.16
38. F27G  -0.106 ± 0.06
39. F27L  -0.105 ± 0.074
40. E31V  -0.105 ± 0.082
41. F27W  -0.103 ± 0.095
42. I32N  -0.101 ± 0.22
43. N30Y  -0.1 ± 0.18
44. S34G  -0.099 ± 0.045
45. E31D  -0.096 ± 0.18
46. F27V  -0.092 ± 0.077
47. F27T  -0.09 ± 0.15
48. D25W  -0.087 ± 0.1
49. F27N  -0.086 ± 0.5
50. H33N  -0.082 ± 0.16
51. N30H  -0.081 ± 0.27
52. F29V  -0.072 ± 0.062
53. F29H  -0.066 ± 0.12
54. H33T  -0.065 ± 0.11
55. F29N  -0.064 ± 0.16
56. I32R  -0.062 ± 0.085
57. H33K  -0.057 ± 0.15
58. F27A  -0.056 ± 0.11
59. R26D  -0.053 ± 0.12
60. D25V  -0.051 ± 0.074
61. N30M  -0.051 ± 0.15
62. R26T  -0.048 ± 0.11
63. F27Y  -0.048 ± 0.12
64. R28C  -0.047 ± 0.083
65. D25R  -0.045 ± 0.093
66. R28L  -0.043 ± 0.079
67. I32T  -0.037 ± 0.1
68. N30W  -0.036 ± 0.087
69. L35M  -0.036 ± 0.22
70. F27I  -0.035 ± 0.19
71. F27C  -0.031 ± 0.12
72. R28G  -0.031 ± 0.066
73. R26A  -0.027 ± 0.092
74. H33L  -0.024 ± 0.07
75. R28P  -0.023 ± 0.1
76. H33F  -0.023 ± 0.29
77. R26G  -0.018 ± 0.059
78. S34C  -0.014 ± 0.091
79. F29L  -0.012 ± 0.077
80. H33C  -0.01 ± 0.13
81. F27K  -0.009 ± 0.15
82. R26M  -0.007 ± 0.11
83. F29G  -0.007 ± 0.056
84. I32S  -0.007 ± 0.08
85. R26V  -0.006 ± 0.054
86. R28A  -0.005 ± 0.11
87. H33R  -0.005 ± 0.083
88. R28Y  -0.004 ± 0.2
89. E31K  -0.004 ± 0.14
90. I32P  -0.003 ± 0.12
91. R28T  -0.002 ± 0.14
92. I32F  -0.001 ± 0.13
93. E31R  0.004 ± 0.051
94. E31N  0.005 ± 0.32
95. R26H  0.008 ± 0.21
96. F29A  0.008 ± 0.089
97. F29D  0.008 ± 0.18
98. F27S  0.011 ± 0.089
99. H33D  0.011 ± 0.11
100. F27D  0.012 ± 0.16
101. N30D  0.018 ± 0.18
102. I32M  0.02 ± 0.28
103. H33W  0.02 ± 0.12
104. R28S  0.024 ± 0.075
105. N30R  0.024 ± 0.08
106. L35A  0.024 ± 0.066
107. N30A  0.028 ± 0.11
108. R28I  0.029 ± 0.23
109. E31M  0.03 ± 0.19
110. F29W  0.031 ± 0.14
111. R26Q  0.032 ± 0.16
112. I32C  0.032 ± 0.12
113. E31G  0.035 ± 0.067
114. L35G  0.035 ± 0.087
115. F29C  0.036 ± 0.15
116. N30T  0.038 ± 0.18
117. R26N  0.039 ± 0.23
118. H33A  0.039 ± 0.073
119. H33Q  0.04 ± 0.15
120. H33V  0.04 ± 0.059
121. F29Q  0.041 ± 0.12
122. R26E  0.047 ± 0.082
123. E31T  0.048 ± 0.12
124. R26S  0.05 ± 0.09
125. F29E  0.05 ± 0.1
126. H33M  0.05 ± 0.12
127. N30G  0.054 ± 0.071
128. E31L  0.054 ± 0.085
129. E31H  0.059 ± 0.22
130. D25L  0.06 ± 0.095
131. R26W  0.061 ± 0.089
132. H33P  0.062 ± 0.092
133. I32G  0.063 ± 0.062
134. F27E  0.065 ± 0.064
135. R28M  0.065 ± 0.14
136. I32W  0.067 ± 0.15
137. F29P  0.069 ± 0.099
138. H33I  0.07 ± 0.13
139. R26P  0.071 ± 0.077
140. D25P  0.073 ± 0.15
141. E31W  0.078 ± 0.1
142. H33E  0.078 ± 0.13
143. H33G  0.079 ± 0.076
144. R26C  0.091 ± 0.12
145. N30E  0.092 ± 0.16
146. F29S  0.093 ± 0.082
147. R26Y  0.095 ± 0.22
148. R28Q  0.1 ± 0.11
149. D25K  0.103 ± 0.33
150. F27P  0.103 ± 0.088
151. N30K  0.107 ± 0.14
152. S34A  0.112 ± 0.077
153. E31Q  0.116 ± 0.17
154. F29R  0.117 ± 0.11
155. H33S  0.118 ± 0.1
156. I32L  0.119 ± 0.093
157. I32V  0.127 ± 0.12
158. R28D  0.128 ± 0.22
159. R28K  0.139 ± 0.13
160. E31I  0.139 ± 0.48
161. N30V  0.143 ± 0.045
162. L35F  0.148 ± 0.1
163. E31P  0.152 ± 0.084
164. F29Y  0.161 ± 0.21
165. N30I  0.187 ± 0.21
166. L35I  0.231 ± 0.38
167. I32Y  0.325 ± 0.48
